± gives the half width of the 95% confidence interval.
assay: folding stability dG unfold from trypsin proteolysis; higher = more stable
Outline: (§1)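 Bayesian fitting of sequencing counts gave K50 for each design. Unfolding free energy followed by setting this against a sequence-predicted unfolded-state K50 and a shared folded-state K50, either per protease or with trypsin and chymotrypsin combined. The designs, under 80 residues and lacking cysteine, were digested in a PA-tagged cDNA display format at 11 threefold-diluted protease concentrations and without protease, and only those with AlphaFold2 dimer inter-PAE above 15 were kept.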

Row | Sequence | folding stability dG unfold [kcal/mol]
1 | SAMKYTVKLPPGAEPIQPEELAALPYVEVVEVEISDGEDGTRTLTITVSPDVPEENVEKLKEYIEKKLKSAG [r14_421_JUSTAS] | 2.93 ± 0.077
2 | SAGGPPIKKAEIKEIYPEKGIINAIIELEDIPKPYEAIGIITDEKEGIIFVEIINPEGGPPLYFTIKASAGG [r13_337_TrMRF] | 0.928 ± 0.033
3 | SAGGGSMTPTTTTKTYNVPPELAQKILDGYPLGDKELAAALGLPPDVEVTLVSSDEDTLTVEITIPASAGGS [r16_679_JUSTAS] | 3.48 ± 0.14
4 | SAGGSAGGSAGGDERVEVFEFDAPGGYRVRLVDFGDLALVAFISPDGRPAVIPVPRELLSAGGSAGGSAGGS [r10_1075_TrMRF] | 0.529 ± 0.041
5 | SAGGSAGETVYRVKIRVNGEELEIEVSAEELEALKALPGLEIELVRVEPAPPPEREETVVPEEEEESAGGSA [r15_443_TrROS_Hall] | 3.43 ± 0.17
6 | SAGGSAGGSAGGGMSSVSLVKTSTITVGNGTVKLETLSYPDSSFVRTTLPNGKDVVEPLPSAGGSAGGSAGG [r7_655_JUSTAS] | -0.561 ± 0.16
7 | SAGGMYKARIEVKNPEEVKKKIKELGLEFEIETRPDGSVDIYFPPEYVDKLIKAFPGEKIEIEPIPDESAGG [r13_261_TrMRF] | 2.94 ± 0.15
8 | SAGGSAIVIPVKSWEEFVEALKNAPASVEIIADLPDGNVIKAKIDPSKGPKIIITEVFPVPPELAGSAGGSA [r15_577_TrMRF] | 0.515 ± 0.036
9 | SAGGEELMKDHPNFIFITIEIRHPGGGKEKPKFMIMIPNNTPEELIDELRDFLPPGYKIKDVEIHYMDSAGG [r13_849_TrROS] | 2.41 ± 0.13
10 | SAGGSAMVRIEVELENGEKLEIEIEVPEEMTEEELLEKAKELAKELAEKLGIPEAKVKVVKIEVVPSAGGSA [r15_463_TrROS_Hall] | 4.06 ± 0.16
11 | SAGGSAGGSAGGLKPGQKVAVFVKVKVKLYRDPATNELTEEVEIEDVFVVDAETKELLLSAGGSAGGSAGGS [r10_248_TrROS_Hall] | 1.98 ± 0.13
12 | SAGGSAGGKLKKFKIKEIKIEKNKETNTYTVTITLENGEKLTITAKSKEDAEKALRKLKEAGLLSAGGSAGG [r6_65_TrROS_Hall] | 2.81 ± 0.086
13 | SAGGSAGGSAGGDKDDKPPVRTVTVMHMFFDENGWLVKFDITFTANGQIEIDWGPVPLPSAGGSAGGSAGGS [r10_682_TrROS] | 2.96 ± 0.3
14 | SAGDSIEIMVMVKTPEEAKKLADEIAQILPGNGLNIEITIMPMEELMKMFMEMTKPDPDGEYRRVRMFSAGG [r19_187_TrROS] | 1.07 ± 0.053
15 | SAGGMKPGAPVEIEFPIPGIPPGRRFRIMIHYPNGKHVEAEYTDNTIKIEIPVPDGDNIHHIYIYFYSAGGS [r16_179_TrROS] | 3.27 ± 0.084
16 | SAGGSKDLEIKITKIKEWDPPNGKQTIRIPIEVYDPENGKPRPPAEELADELQKRFPGMPIKVEPVSAGGSA [r2_27_TrROS] | -0.416 ± 0.29
17 | SAGGMKKGQKVTITIEKNEDGTLRITVKVDGKEFVFEFPKDMSLEELLKKAEEAAKKLNLPVEIEPVSAGGS [r16_446_TrROS_Hall] | 1.29 ± 0.069
18 | SAGGLKIVETKTEPEIGKRYVVIEVYKPETGKPILYVVPLDLEKGENSPEAVAKAILKELKLPPGVKASAGG [r13_362_TrMRF] | 0.58 ± 0.082
19 | SAGGSAGGSAGEFELLSVEYFPPIGRVRVAYRRGDLVLVVDFFNPENPEIRPVSLSDELGSAGGSAGGSAGG [r17_145_TrMRF] | 2.64 ± 0.067
20 | SAGGSAGGSAGGKIIVYNPETGKPEEVSPEDLEEIIKNTPGPLILKVGEGEIELNAKDISAGGSAGGSAGGS [r10_839_TrMRF] | 0.807 ± 0.051
21 | SAGGSAGGSSMTFEVVEIERPPGDEIRVLVKREDGREFAEITLPPGASPEEIERAVREAVEAESAGGSAGGS [r12_798_JUSTAS] | 0.707 ± 0.07

Row | Sequence | folding stability dG unfold [kcal/mol]
22 | SAGGSAGGSAGYVVIPLDIDAEPGATVEITLPNGEKIEAIVEDHPDGLRSVRVGDGVILVPGSAGGSAGGSA [r18_372_TrMRF] | 0.465 ± 0.032
23 | SAGGSAGGSAGGSVSSVSTTSSPVVDPETGPASTVTTHSVPGGPATTVVMTPDSTTTTGSAGGSAGGSAGGS [r10_384_JUSTAS] | 1.92 ± 0.081
24 | SAGGSAGGSAGGYVGPDQPVIIVEVKVKGARIGKDGKIYYDFEVERIEIREVEEGDNLGSAGGSAGGSAGGS [r10_826_TrMRF] | 2.05 ± 0.21
25 | SPYTVDSVSEDPSRNSTTVLNFPDGTTVTVTYDPSNPSLATVTVRPADGTTETTTVPLDEPFVVNLTVNPSA [r9_875_JUSTAS] | 0.922 ± 0.074
26 | SEPPPKIKIKEVEYNPDDGYLTIPVTHPNGPKMRVKFRPPDGKTQEIPPNSPTITIPLPPNMRLTEIEVDSA [r9_113_TrROS] | 3.51 ± 0.31
27 | SAGGSAEIAEKNGFKITVELHRYNDYIMVEIEIRWPGGQEFTVTIMIKIKIVPPKPPVDPNDPDNNSAGGSA [r15_843_TrROS] | 4.47 ± 0.61
28 | SAGGSAGGSAGVVEPTVVSRAPDGTLTVVLNLPDGSTRTVTDPTNVTIGDRPINALTNASSAGGSAGGSAGG [r11_1017_JUSTAS] | -0.956 ± 0.45
29 | SAGGSAGGSAGNKPVTVRFTIKIPLPNGKKLEIPVEVTYDSPEDRDRAEKEAEEIAREFLSAGGSAGGSAGG [r17_510_TrROS] | 1.5 ± 0.057
30 | SAGGSAGGSAGASPTAPAVTVEVKTEEVPNNDLLKTTTTTYFPGTGTTVTTETILPPGLGSAGGSAGGSAGG [r11_746_JUSTAS] | 0.187 ± 0.053
31 | SAGGKVKIVKIEIEEVDGKLKIRIVVEVDTPEDLEALKKAGVKKLKVEKRRLPNGRLLVVIEVEVEVKSAGG [r13_506_TrROS_Hall] | 2.46 ± 0.077
32 | SAGGSAGGEEIAKKLRDLAKKLGLDVEIKKIEVTKYPLPEGDENKEEKWVTTITITVNGKKITLSAGGSAGG [r6_686_TrROS_Hall] | 2.22 ± 0.053
33 | SAGGMFLRIEPEDGSRFEIPLNDPSLPLEVVVGLVSKYMDGPVKLKLTLVLPEEEVEYEYEIPLEKKSAGGS [r16_216_TrMRF] | 1.24 ± 0.028
34 | SAGKDGDPPKRVRIKFKIPLPGGKLYEVTQTFYPNGSVHVSIRFPNGWMLSAWIPPDGDIEIKIMPIKKSAG [r5_168_TrROS] | 3.37 ± 0.21
35 | SAGGSAGGSAGATISPDGYKIVVTNADGEKVTLTFDSLEEAKAALEALLPPGARVFIEKVSAGGSAGGSAGG [r11_983_TrROS_Hall] | 0.529 ± 0.035
36 | SAGGSAGPDPKNKKIKVKVETFYLEDFGLKVEKIYIEGTGKPLLVFYFPDGSKLIINEDGTVKLIESAGGSA [r15_617_TrMRF] | 1.79 ± 0.35
37 | SADHKFEIDINVFEHDGWRYIMIPVKYDDPQDVDEAAEKILREFGIPPNFNVNVMRSPNEVWINIRIPYSAG [r14_804_TrROS] | 2.08 ± 0.06
38 | SAGGSAGGEKTTVLVRVELYLEDTEVVELPDFVFTDLTEEQVLEEVRKLGLPDNVKVEIIPLPASAGGSAGG [r6_88_TrMRF] | 2.53 ± 0.073
39 | SAGGSAGGSAGSSPSDLKVTLKVTLPDGTVLTVVMPAHATLDDFPADRPVTVTTLETKLESAGGSAGGSAGG [r11_997_JUSTAS] | 1.66 ± 0.084
40 | SAGGDKDNKPPIPTKTITFMLPYDSPEDAKDYAEEIARELFQEEGIPIKVTVQYNPESGWVWVTITIYSAGG [r13_517_TrROS] | 3.49 ± 0.1
41 | SAGPVVVDPNGKLLPLKVKAVFVIDPELLEEKAKESDNSLEKAIRDLVKELEAELKAKGYDVEVEGIGSAGG [r19_305_TrMRF] | 1.12 ± 0.067
42 | SAGGKEKVKIKIKIIDKKTNKVYEAEATFDKETGKVTITFPDGSKITFDLKTNKLYIEKDGKIIEIESAGGS [r16_743_TrROS_Hall] | 2.66 ± 0.27

assay: folding stability dG unfold from chymotrypsin proteolysis; higher = more stable
Outline: as §1

Row | Sequence | folding stability dG unfold [kcal/mol]
43 | SAMKYTVKLPPGAEPIQPEELAALPYVEVVEVEISDGEDGTRTLTITVSPDVPEENVEKLKEYIEKKLKSAG [r14_421_JUSTAS] | 3.17 ± 0.043
44 | SAGGPPIKKAEIKEIYPEKGIINAIIELEDIPKPYEAIGIITDEKEGIIFVEIINPEGGPPLYFTIKASAGG [r13_337_TrMRF] | 1.09 ± 0.1
45 | SAGGGSMTPTTTTKTYNVPPELAQKILDGYPLGDKELAAALGLPPDVEVTLVSSDEDTLTVEITIPASAGGS [r16_679_JUSTAS] | 4.05 ± 0.068
46 | SAGGSAGGSAGGDERVEVFEFDAPGGYRVRLVDFGDLALVAFISPDGRPAVIPVPRELLSAGGSAGGSAGGS [r10_1075_TrMRF] | 1.87 ± 0.035
47 | SAGGSAGETVYRVKIRVNGEELEIEVSAEELEALKALPGLEIELVRVEPAPPPEREETVVPEEEEESAGGSA [r15_443_TrROS_Hall] | 3.36 ± 0.13
48 | SAGGSAGGSAGGGMSSVSLVKTSTITVGNGTVKLETLSYPDSSFVRTTLPNGKDVVEPLPSAGGSAGGSAGG [r7_655_JUSTAS] | 0.105 ± 0.1
49 | SAGGMYKARIEVKNPEEVKKKIKELGLEFEIETRPDGSVDIYFPPEYVDKLIKAFPGEKIEIEPIPDESAGG [r13_261_TrMRF] | 3.38 ± 0.11
50 | SAGGSAIVIPVKSWEEFVEALKNAPASVEIIADLPDGNVIKAKIDPSKGPKIIITEVFPVPPELAGSAGGSA [r15_577_TrMRF] | 1.06 ± 0.053
51 | SAGGEELMKDHPNFIFITIEIRHPGGGKEKPKFMIMIPNNTPEELIDELRDFLPPGYKIKDVEIHYMDSAGG [r13_849_TrROS] | 1.72 ± 0.096
52 | SAGGSAMVRIEVELENGEKLEIEIEVPEEMTEEELLEKAKELAKELAEKLGIPEAKVKVVKIEVVPSAGGSA [r15_463_TrROS_Hall] | 2.92 ± 0.22
53 | SAGGSAGGSAGGLKPGQKVAVFVKVKVKLYRDPATNELTEEVEIEDVFVVDAETKELLLSAGGSAGGSAGGS [r10_248_TrROS_Hall] | 2.64 ± 0.071
54 | SAGGSAGGKLKKFKIKEIKIEKNKETNTYTVTITLENGEKLTITAKSKEDAEKALRKLKEAGLLSAGGSAGG [r6_65_TrROS_Hall] | 3.39 ± 0.098
55 | SAGGSAGGSAGGDKDDKPPVRTVTVMHMFFDENGWLVKFDITFTANGQIEIDWGPVPLPSAGGSAGGSAGGS [r10_682_TrROS] | 3.8 ± 0.42
56 | SAGDSIEIMVMVKTPEEAKKLADEIAQILPGNGLNIEITIMPMEELMKMFMEMTKPDPDGEYRRVRMFSAGG [r19_187_TrROS] | 1.37 ± 0.13
57 | SAGGMKPGAPVEIEFPIPGIPPGRRFRIMIHYPNGKHVEAEYTDNTIKIEIPVPDGDNIHHIYIYFYSAGGS [r16_179_TrROS] | 4.33 ± 0.11
58 | SAGGSKDLEIKITKIKEWDPPNGKQTIRIPIEVYDPENGKPRPPAEELADELQKRFPGMPIKVEPVSAGGSA [r2_27_TrROS] | 0.863 ± 0.028
59 | SAGGMKKGQKVTITIEKNEDGTLRITVKVDGKEFVFEFPKDMSLEELLKKAEEAAKKLNLPVEIEPVSAGGS [r16_446_TrROS_Hall] | 2.65 ± 0.15
60 | SAGGLKIVETKTEPEIGKRYVVIEVYKPETGKPILYVVPLDLEKGENSPEAVAKAILKELKLPPGVKASAGG [r13_362_TrMRF] | 1.71 ± 0.16
61 | SAGGSAGGSAGEFELLSVEYFPPIGRVRVAYRRGDLVLVVDFFNPENPEIRPVSLSDELGSAGGSAGGSAGG [r17_145_TrMRF] | 2.48 ± 0.057
62 | SAGGSAGGSAGGKIIVYNPETGKPEEVSPEDLEEIIKNTPGPLILKVGEGEIELNAKDISAGGSAGGSAGGS [r10_839_TrMRF] | 0.862 ± 0.067
63 | SAGGSAGGSSMTFEVVEIERPPGDEIRVLVKREDGREFAEITLPPGASPEEIERAVREAVEAESAGGSAGGS [r12_798_JUSTAS] | 1.55 ± 0.057

— the supplement of paper PMC12764529
